Laboratory results as given in the RNAGym collection of RNA variant scans (doi:10.1101/gr.219683.116).

B1: mRNA-splicing (parent)
chain: AGUUGCUGCUGGGAGCUCCAGCACAGUGAAAUGGACAGAAGGGCAGAGCAA

Variants of: B1
Assay: exon inclusion enrichment index; higher = more inclusion; WT1 exon 5 minigene, HEK293

First: G5U G8U C9U A23C
Second: G5U G8U C9U A23C C24A
The “exon inclusion enrichment index” value of the first is lower: 0.1 for the first, 0.231 for the second.

First: G5U G8U C9U A23C C24G
Second: G5U G8U C9U A23C C24U
The “exon inclusion enrichment index” value of the first is higher: 0.632 for the first, 0.0326 for the second.

Compared with G5U G8U C9U A23G, G5U G8U C9U A23G C24A is higher in “exon inclusion enrichment index” value: 0.252 for the first, 0.532 for the second.

Going from G5U G8U C9U A23G C24G to G5U G8U C9U A23G C24U, the “exon inclusion enrichment index” value falls from 0.604 to 0.0193.

First: G5U G8U C9U A23U
Second: G5U G8U C9U A23U C24A
The “exon inclusion enrichment index” value of the first is lower: 0.0459 for the first, 0.0491 for the second.

Compared with G5U G8U C9U A23U C24G, G5U G8U C9U A23U C24U is lower in “exon inclusion enrichment index” value: 0.223 for the first, 0.00337 for the second.

Compared with G5U G8U C9U A25C, G5U G8U C9U A25C G26A is lower in “exon inclusion enrichment index” value: 0.793 for the first, 0.504 for the second.

Going from G5U G8U C9U A25C G26C to G5U G8U C9U A25C G26U, the “exon inclusion enrichment index” value rises from 0.215 to 0.328.

Compared with G5U G8U C9U A25G, G5U G8U C9U A25G G26A is higher in “exon inclusion enrichment index” value: 0.618 for the first, 0.765 for the second.

Going from G5U G8U C9U A25G G26C to G5U G8U C9U A25G G26U, the “exon inclusion enrichment index” value falls from 0.74 to 0.38.

First: G5U G8U C9U A25U
Second: G5U G8U C9U A25U G26A
The “exon inclusion enrichment index” value of the first is higher: 0.289 for the first, 0.176 for the second.

First: G5U G8U C9U A25U G26C
Second: G5U G8U C9U A25U G26U
The “exon inclusion enrichment index” value of the first is higher: 0.219 for the first, 0.0927 for the second.

Compared with G5U G8U C9U A29C, G5U G8U C9U A29C A30C is higher in “exon inclusion enrichment index” value: 0.0814 for the first, 0.344 for the second.

Compared with G5U G8U C9U A29C A30G, G5U G8U C9U A29C A30U is lower in “exon inclusion enrichment index” value: 0.414 for the first, 0.0831 for the second.

First: G5U G8U C9U A29G
Second: G5U G8U C9U A29G A30C
The “exon inclusion enrichment index” value of the first is higher: 0.246 for the first, 0.035 for the second.

Going from G5U G8U C9U A29G A30G to G5U G8U C9U A29G A30U, the “exon inclusion enrichment index” value falls from 0.0374 to 0.0242.

Compared with G5U G8U C9U A29U, G5U G8U C9U A29U A30C is higher in “exon inclusion enrichment index” value: 0.0318 for the first, 0.0859 for the second.

Going from G5U G8U C9U A29U A30G to G5U G8U C9U A29U A30U, the “exon inclusion enrichment index” value falls from 0.129 to 0.0146.

First: G5U G8U C9U A30C
Second: G5U G8U C9U A30C A31C
The “exon inclusion enrichment index” value of the first is lower: 0.172 for the first, 0.347 for the second.

Compared with G5U G8U C9U A30C A31G, G5U G8U C9U A30C A31U is lower in “exon inclusion enrichment index” value: 0.406 for the first, 0.139 for the second.

First: G5U G8U C9U A30G
Second: G5U G8U C9U A30G A31C
The “exon inclusion enrichment index” value of the first is higher: 0.109 for the first, 0.00346 for the second.

First: G5U G8U C9U A30G A31G
Second: G5U G8U C9U A30G A31U
The “exon inclusion enrichment index” value of the first is lower: 0.0186 for the first, 0.0253 for the second.

Compared with G5U G8U C9U A30U, G5U G8U C9U A30U A31C is higher in “exon inclusion enrichment index” value: 0.0559 for the first, 0.0725 for the second.

First: G5U G8U C9U A30U A31G
Second: G5U G8U C9U A30U A31U
The “exon inclusion enrichment index” value of the first is higher: 0.15 for the first, 0.0523 for the second.

First: G5U G8U C9U A31C
Second: G5U G8U C9U A31C U32A
The “exon inclusion enrichment index” value of the first is higher: 0.202 for the first, 0.077 for the second.

Compared with G5U G8U C9U A31C U32C, G5U G8U C9U A31C U32G is lower in “exon inclusion enrichment index” value: 0.544 for the first, 0.188 for the second.

First: G5U G8U C9U A31G
Second: G5U G8U C9U A31G U32A
The “exon inclusion enrichment index” value of the first is lower: 0.187 for the first, 1.22 for the second.

First: G5U G8U C9U A31G U32C
Second: G5U G8U C9U A31G U32G
The “exon inclusion enrichment index” value of the first is higher: 0.678 for the first, 0.0767 for the second.

Compared with G5U G8U C9U A31U, G5U G8U C9U A31U U32A is lower in “exon inclusion enrichment index” value: 0.15 for the first, 0.00567 for the second.

Compared with G5U G8U C9U A31U U32C, G5U G8U C9U A31U U32G is lower in “exon inclusion enrichment index” value: 0.282 for the first, 0.0359 for the second.

Going from G5U G8U C9U A35C to G5U G8U C9U A35C C36A, the “exon inclusion enrichment index” value rises from 0.0257 to 0.0636.

Compared with G5U G8U C9U A35C C36G, G5U G8U C9U A35C C36U is lower in “exon inclusion enrichment index” value: 0.125 for the first, 0.0048 for the second.

Compared with G5U G8U C9U A35G, G5U G8U C9U A35G C36A is lower in “exon inclusion enrichment index” value: 0.0347 for the first, 0.0301 for the second.

Going from G5U G8U C9U A35G C36G to G5U G8U C9U A35G C36U, the “exon inclusion enrichment index” value falls from 0.00476 to 0.0033.

Compared with G5U G8U C9U A35U, G5U G8U C9U A35U C36A is lower in “exon inclusion enrichment index” value: 0.0145 for the first, 0.00069 for the second.

Compared with G5U G8U C9U A35U C36G, G5U G8U C9U A35U C36U is lower in “exon inclusion enrichment index” value: 0.0125 for the first, 0.000565 for the second.

Compared with G5U G8U C9U A37C, G5U G8U C9U A37C G38A is lower in “exon inclusion enrichment index” value: 0.465 for the first, 0.157 for the second.

Compared with G5U G8U C9U A37C G38C, G5U G8U C9U A37C G38U is lower in “exon inclusion enrichment index” value: 0.175 for the first, 0.0543 for the second.

Compared with G5U G8U C9U A37G, G5U G8U C9U A37G G38A is lower in “exon inclusion enrichment index” value: 0.303 for the first, 0.184 for the second.

Going from G5U G8U C9U A37G G38C to G5U G8U C9U A37G G38U, the “exon inclusion enrichment index” value falls from 0.241 to 0.0298.

First: G5U G8U C9U A37U
Second: G5U G8U C9U A37U G38A
The “exon inclusion enrichment index” value of the first is higher: 0.104 for the first, 0.0389 for the second.

Going from G5U G8U C9U A37U G38C to G5U G8U C9U A37U G38U, the “exon inclusion enrichment index” value falls from 0.0749 to 0.0252.
